By EC50 is commonly meant the concentration that produces a half-maximal response. One may read the IC50 as the concentration that gives 50% inhibition.

Assay [1] has as its target T1, 5T4 on cells (NCI-H226 endogenous; CHO over-expressing 5T4) (UniProt Q13641 32-420, limits assumed).
T1 construct: whole, on cells
T1 sequence (looked up): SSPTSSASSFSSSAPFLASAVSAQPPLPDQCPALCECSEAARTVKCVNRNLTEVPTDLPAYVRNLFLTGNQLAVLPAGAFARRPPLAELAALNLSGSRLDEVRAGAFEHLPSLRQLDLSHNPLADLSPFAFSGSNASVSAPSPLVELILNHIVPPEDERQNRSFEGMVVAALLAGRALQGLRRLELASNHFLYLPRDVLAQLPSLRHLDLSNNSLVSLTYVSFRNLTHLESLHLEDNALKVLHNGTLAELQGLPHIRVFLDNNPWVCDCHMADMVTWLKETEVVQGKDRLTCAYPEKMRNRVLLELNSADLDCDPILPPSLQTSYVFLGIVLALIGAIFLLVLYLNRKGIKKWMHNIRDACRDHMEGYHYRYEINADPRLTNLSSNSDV
In words: FACS on NCI-H226 cells, endogenous 5T4 (FIG. 45B). How it is done: (§1) Suspension cultured cells was harvested directly, and adherent cell were digested using TrypLE Express Enzyme (cat: 12604-013, supplier Life technologies). Centrifuge at 1000 rpm for 5 min and discard the supernatant. Cells are suspended at a concentration of 2×10⁶/mL in FACS buffer (2% FBS in PBS) and add 100 µL/well of cell suspension to the plate (cat #3799, supplier Corning). Centrifuging the plates at 2000 rpm for 5 min and discard the supernatant. Re-suspend the cells in 100 µL/well of Tribody set antibodies (400 nM start, 4-fold dilution, 8 point including 0 point) and incubate the plate for 60 min at 4° C. Centrifuge the plate at 2000 rpm, 4° C. for 5 min and discard supernatant. Then wash the cells 3 times with 170 µL FACS buffer. Re-suspend the cells at 100 µL/well with secondary antibody (goat anti-human Ig Fab-FITC, Cat # 2085-02, Southern biotech) with 1:400 dilution and incubate the plate for 30 min at 4° C. in dark. Centrifuge the plate at 2000 rpm, 4° C. for 5 min and discard supernatant. […] The fluorescence intensity of the staining was measured using flow cytometer (BD, FACSVerse). The geometric mean fluorescence intensity (GMFI; median fluorescence intensity (MFI)) of set antibodies staining was calculated (BD FACSuite software). Dose-response curves were generated and EC50s for thetrispecific variants binding were calculated using GraphPad Prism software.

Assay [2] deals with T2, h5T4-His (recombinant human 5T4) (human, UniProt Q13641 32-355, limits assumed).
T2 construct: Bought protein; also called recombinant 5T4
T2 sequence (looked up): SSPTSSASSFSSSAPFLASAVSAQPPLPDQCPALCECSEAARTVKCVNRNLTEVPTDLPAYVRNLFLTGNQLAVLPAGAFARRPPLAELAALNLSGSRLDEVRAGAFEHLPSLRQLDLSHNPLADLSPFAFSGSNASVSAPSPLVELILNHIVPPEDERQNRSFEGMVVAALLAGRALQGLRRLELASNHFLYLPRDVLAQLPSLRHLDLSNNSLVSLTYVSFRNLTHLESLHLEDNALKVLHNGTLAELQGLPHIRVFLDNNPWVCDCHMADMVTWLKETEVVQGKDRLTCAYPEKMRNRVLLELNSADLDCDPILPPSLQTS
The experiment in a line: ELISA on coated h5T4-His (FIG. 43B). The method, then: (§2) Methods: ELISA binding of Tribody/ProTribody antibody constructs to antigens: Dilute target protein (hCD3epsilon-His (cat # 10977-H08S, supplier Sino Biological); h5T4-His (cat# 19845-H08H, supplier Sino Biological); NKG2A-CD94-ECD-hFc, Lot:20200724002, provided by CP; or NKG2D-ECD-hFc, Lot: 20200413002, provided by CP) into PBS with final concentration of 0.01 µg/mL for hCD3epsilon-His, 0.3 µg/mL for h5T4-His, 1 µg/mL for NKG2A-CD94-ECD-hFc and 0.7 µg/mL for hNKG2D-ECD-hFc respectively and coat 100 µL/well on ELISA plate (cat: 9018, supplier Corning) respectively. Incubate O/N, 4° C. The plates were blocked with 250 µL 1% BSA in PBST for 1 hr at 37° C.Wash 4 times with PBST. All the washes are done using Biotek (Elx 405). All the Tribody set antibodies were diluted to 400 nM and make 4-fold serially dilutions (12 points, including 0 point). Add 100 µL/well diluted antibody constructs solution to plate, incubate for 1 hr at 37° C.Wash 4 times with PBST. Add 100 µL/well anti-human kappa light chain-HRP (1:10000), incubate for 0.5 hr at 37° C. Wash 4 times with PBST. 100 µL/well of TMB substrate was added and incubated at room temperature for 5 min. 100 µL/well of 1N HCl to terminate reaction. Plates were read using ELISA plate reader at 450 nm wavelength (instrunet SpectraMax M5e). Data Analysis was performed using Graphpad prism 5 software by using nonlinear regression (curve fit): log (agonist) vs. response, agonist is antibody concentration (nM) and response is OD value.
For orientation: An ELISA detects its analyte on a solid surface through an enzyme-linked reagent.

A further assay concerns the target T3, NKG2A-CD94-ECD-hFc (human, UniProt P26715 94-233; Q13241 32-179, limits assumed).
T3 construct: extracellular domain; Lot 20200724002, 'provided by CP'; the two-chain layout here is only the reading of the name; also called human NKG2A (recombinant); NKG2A antigen; not shown: human Fc (hFc)
The experiment in a line: ELISA on coated NKG2A-CD94-ECD-hFc (FIG. 43C). The method, then: as §2

Assay [3] deals with T4, NKG2A on NK92 cells (endogenous) (UniProt P26715 1-233, limits assumed).
T4 construct: whole, on cells
In words: FACS on NK92 cells, endogenous NKG2A (FIG. 45C). How it is done: as §1

The target of assay [4] is T1, 5T4 on cells (NCI-H226 endogenous; CHO …). The experiment in a line: FACS on CHO cells over-expressing ectopic 5T4 (FIG. 45D). How it is done: Then wash the cells 3 times with 170 µL FACS buffer. Re-suspend the cells at 100 µL/well with secondary antibody (goat anti-human Ig Fab-FITC, Cat # 2085-02, Southern biotech) with 1:400 dilution and incubate the plate for 30 min at 4° C. in dark. Centrifuge the plate at 2000 rpm, 4° C. for 5 min and discard supernatant. Then wash the cells 3 times with FACS buffer and analyze the sample with FACS verse. The fluorescence intensity of the staining was measured using flow cytometer (BD, FACSVerse). The geometric mean fluorescence intensity (GMFI; median fluorescence intensity (MFI)) of set antibodies staining was calculated (BD FACSuite software). Dose-response curves were generated and EC50s for thetrispecific variants binding were calculated using GraphPad Prism software.
Results: The expressed trispecific constructs were analyzed for their binding to cells expressing endogenous CD3ε, 5T4 and NKG2A/NKG2D. […] (FIG. 45F).

The target in assay [5] is T5, NKG2A/CD94 on CHO cells (CHOK1-NKG2A-CD94) (human, UniProt P26715 1-233; Q13241 1-179, limits assumed).
T5 construct: whole, on cells; also called CHO cells over-expressing NKG2A/CD94; CHO cell line over expressing ectopic NKG2A
In words: FACS on CHO cells over-expressing ectopic NKG2A (NKG2A/CD94 by the legend) (FIG. 45E). The method, then: as §1

For assay [6], the target named is T5, NKG2A/CD94 on CHO cells …. In words: competitive FACS receptor-ligand blocking assay on CHOK1-NKG2A-CD94 cells, labelled ligand HLA-E PE (FIG. 49).

Numbering of substitutions follows the chain as printed.

T5 sequence (P26715 whole entry, chain 1 of 2): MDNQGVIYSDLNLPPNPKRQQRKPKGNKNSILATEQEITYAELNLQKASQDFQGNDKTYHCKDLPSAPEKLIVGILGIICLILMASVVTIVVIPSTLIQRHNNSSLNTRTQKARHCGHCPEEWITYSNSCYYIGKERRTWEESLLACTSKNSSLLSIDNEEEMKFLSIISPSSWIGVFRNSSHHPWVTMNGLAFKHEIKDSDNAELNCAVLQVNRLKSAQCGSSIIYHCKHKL
T5 sequence (Q13241 whole entry, chain 2 of 2): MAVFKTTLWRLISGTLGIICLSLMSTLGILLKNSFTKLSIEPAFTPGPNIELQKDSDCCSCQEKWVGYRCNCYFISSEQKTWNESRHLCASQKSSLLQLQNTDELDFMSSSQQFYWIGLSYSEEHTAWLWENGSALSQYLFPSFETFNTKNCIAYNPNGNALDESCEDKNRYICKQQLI
T3 sequence (P26715 94-233 limits assumed, chain 1 of 2): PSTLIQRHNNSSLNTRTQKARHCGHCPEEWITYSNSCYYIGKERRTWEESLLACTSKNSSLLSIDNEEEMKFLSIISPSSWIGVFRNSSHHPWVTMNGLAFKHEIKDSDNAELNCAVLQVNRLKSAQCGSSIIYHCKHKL
T3 sequence (Q13241 32-179 limits assumed, chain 2 of 2): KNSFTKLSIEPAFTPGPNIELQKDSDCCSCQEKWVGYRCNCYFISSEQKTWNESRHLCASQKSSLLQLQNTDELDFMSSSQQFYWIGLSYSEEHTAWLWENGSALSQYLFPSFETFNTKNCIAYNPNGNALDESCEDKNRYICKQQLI
T4 sequence (P26715 whole entry): as the sequence (P26715 whole entry, chain 1 of 2) above

B1: IM-1063 variant (other)
heavy: GGSGGSEVQLVESGGGLVQPGGSLRLSCAASGFTFNTYAMNWVRQAPGKGLEWVARIRSKYNNYATYYADSVKDRFTISRDDSKNTLYLQMNSLRAEDTAVYYCVRHGNFGNSYVSWFAYWGQGTMVTVSSASTKGPSVFPLAPSSKSTSGGTAALGCLVKDYFPEPVTVSWNSGALTSGVHTFPAVLQSSGLYSLSSVVTVPSSSLGTQTYICNVNHKPSNTKVDKRVEPKSCPPCGGGGSQVQLVQSGAEVKKPGASVKVSCKASGYTFTSYWMNWVRQAPGQGLEWMGRIDPYDSETHYAQKLQGRVTMTTDTSTSTAYMELRSLRSDDTAVYYCARGGYDFDVGTLYWFFDVWGQGTTVTVSSGGGGSGGGGSGGGGSGGGGSDIQMTQSPSSLSASVGDRVTITCRASENIYSYLAWYQQKPGKAPKLLIYNAKTLAEGVPSRFSGSGSGTDFTLTISSLQPEDFATYYCQHHYGTPRTFGGGTKVEIK
light: GGSGGSQAVVTQEPSLTVSPGGTVTLTCRSSTGAVTTSNYANWVQQKPGQAPRGLIGGTNKRAPGTPARFSGSLLGGKAALTLSGVQPEDEAEYYCALWYSNLWVFGGGTKLTVLGQPKAAPSVTLFPPSSEELQANKATLVCLISDFYPGAVTVAWKADSSPVKAGVETTTPSKQSNNKYAASSYLSLTPEQWKSHRSYSCQVTHEGSTVEKTVAPTECPPCSGGGSDIQMTQSPSSLSASVGDRVTITCRASQGISNYLAWFQQKPGKAPKSLIYRANRLQSGVPSRFSGSGSGTDFTLTISSLQPEDVATYYCLQYDDFPWTFGQGTKLEIKGGGGSGGGGSGGGGSGGGGSQVQLVQSGAEVKKPGASVKVSCKASGYTFTSFWMHWVRQAPGQGLEWMGRIDPNRGGTEYNEKAKSRVTMTADKSTSTAYMELSSLRSEDTAVYYCAGGNPYYPMDYWGQGTTVTVSS
notes: CD3/5T4/NKG2A Tribody variant
The molecule B1 showed an EC50 in assay [1] of 1.64 nM.

B2: IM-1153 Tribody, CD3 mutant variant (other)
heavy: GGSGGSEVQLVESGGGLVQPGGSLRLSCAASGFTFNTYAMNWVRQAPGKGLEWVARIGSGGNGYATYYADSVKDRFTISRDDSKNTLYLQMNSLRAEDTAVYYCVRHGNFGASARSWFAYWGQGTMVTVSSASTKGPSVFPLAPSSKSTSGGTAALGCLVKDYFPEPVTVSWNSGALTSGVHTFPAVLQSSGLYSLSSVVTVPSSSLGTQTYICNVNHKPSNTKVDKRVEPKSCPPCGGGGSDIQMTQSPSSLSASVGDRVTITCRASENIYSYLAWYQQKPGKAPKLLIYNAKTLAEGVPSRFSGSGSGTDFTLTISSLQPEDFATYYCQHHYGTPRTFGGGTKVEIKGGGGSGGGGSGGGGSGGGGSQVQLVQSGAEVKKPGASVKVSCKASGYTFTSYWMNWVRQAPGQGLEWMGRIDPYDSETHYAQKLQGRVTMTTDTSTSTAYMELRSLRSDDTAVYYCARGGYDFDVGTLYWFFDVWGQGTTVTVSS
light: B1 light with T37R, S38G, Y40A, K61A, W99G, N102G
As for B2, the EC50 in assay [2] is 31 nM; in the assay with NKG2A-CD94-ECD-hFc it was 2.1 nM; in assay [3] it was 3.7 nM; in assay [4] it was 1.33 nM; in assay [5], 3 nM. In assay [6], this molecule yielded an IC50 of 18 nM.

For the origin of these results see US20230312753A1 (IMMUNORIZON, published 2023).
